# Measured values taken from publication PMC3198426.
# Biological target: HAVI-Fluc-bJun (basic leucine zipper region of Jun, 225-334) (human)
# Test: pull-down; DLR-PD (dual luciferase reporter pull-down): both proteins co-expressed in HEK293; lysate in passive lysis buffer on Streptavidin MagneSphere Paramagnetic Particles in PBS, 30 m to 1 h, room temperature; two washes PBS with 1% Nonidet P 40, one with PBS; the biotinylated HAVI-tagged protein is held, Fluc and Rluc activity read on the beads; in some samples eYFP-MAVS or other activators (IRF3) or HCV NS3/4A (MAVS) co-expressed
# HAVI-Fluc-bJun (basic leucine zipper region of Jun, 225-334) (human), sequence (P05412 whole entry): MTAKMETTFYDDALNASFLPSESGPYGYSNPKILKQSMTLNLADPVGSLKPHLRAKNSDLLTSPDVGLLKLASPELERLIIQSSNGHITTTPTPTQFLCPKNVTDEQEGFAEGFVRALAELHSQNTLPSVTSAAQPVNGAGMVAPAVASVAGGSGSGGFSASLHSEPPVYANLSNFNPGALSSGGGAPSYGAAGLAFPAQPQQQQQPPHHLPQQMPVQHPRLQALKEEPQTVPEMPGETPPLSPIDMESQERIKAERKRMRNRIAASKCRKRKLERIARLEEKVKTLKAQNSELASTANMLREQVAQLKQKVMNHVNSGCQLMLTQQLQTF
# Rluc-bFos-Flag (basic leucine zipper region of Fos, 118-220), sequence (P01100 other isoform, or with tags, fused parts or gaps): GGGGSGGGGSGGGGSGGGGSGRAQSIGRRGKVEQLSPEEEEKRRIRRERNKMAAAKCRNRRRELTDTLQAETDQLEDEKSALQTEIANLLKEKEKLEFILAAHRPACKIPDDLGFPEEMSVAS
substance,measurement,value
"Rluc-bFos-Flag (basic leucine zipper region of Fos, 118-220) (from UniProt P01100 118-220) (domain or fragment)",activity ratio of Rluc/Fluc on the beads (Rluc/Fluc activity ratio),1.7
same,fold of the percentage of Rluc on beads over the three negative controls,> 80 fold
same,molar ratio of Rluc-bFos to HAVI-Fluc-bJun binding to the beads,0.1 molar ratio
same,percentage of Rluc on beads to lysate,4%
